The assay deals with Human recombinant full length DDX3X (human) (UniProt O00571).

For “Human recombinant full length DDX3X (from UniProt O00571 1-662) (enzyme)”, the helicase activity (unwinding of dsRNA Substrate *R18: R38) against DDX3X concentration, cooperativity index nH turned out to be 1.5; the helicase activity (unwinding of dsRNA Substrate *R18: R38) against DDX3X concentration, half-maximal enzyme concentration K1/2 was determined as 0.26 µM; the nuclease (RNaseH2-like) activity against DDX3X concentration, cooperativity index nH (no cooperativity observed) was determined as 0.7.
